Experiment [1] addresses T1, human Protein S (human, UniProt P07225 42-676).
T1 construct: also called ProS; ProS1
T1 sequence: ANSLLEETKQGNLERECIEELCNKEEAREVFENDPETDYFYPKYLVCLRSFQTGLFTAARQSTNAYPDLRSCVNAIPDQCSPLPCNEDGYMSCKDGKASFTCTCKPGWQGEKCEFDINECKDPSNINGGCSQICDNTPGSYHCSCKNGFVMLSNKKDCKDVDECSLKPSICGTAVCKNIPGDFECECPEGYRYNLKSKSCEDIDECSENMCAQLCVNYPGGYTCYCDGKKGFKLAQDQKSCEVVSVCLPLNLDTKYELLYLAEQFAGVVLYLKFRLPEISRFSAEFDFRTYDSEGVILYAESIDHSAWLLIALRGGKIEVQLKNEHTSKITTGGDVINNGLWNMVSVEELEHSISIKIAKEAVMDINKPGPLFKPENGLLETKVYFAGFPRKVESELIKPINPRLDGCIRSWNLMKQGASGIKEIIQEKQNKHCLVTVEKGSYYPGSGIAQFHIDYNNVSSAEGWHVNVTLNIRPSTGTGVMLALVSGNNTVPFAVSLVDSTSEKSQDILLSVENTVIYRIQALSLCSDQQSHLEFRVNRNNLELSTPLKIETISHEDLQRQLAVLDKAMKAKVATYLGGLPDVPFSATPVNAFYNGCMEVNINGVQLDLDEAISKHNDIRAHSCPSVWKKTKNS
The experiment can be described thus: SPR Biacore X100; antibody captured by anti-human IgG (Fc); Protein S 2-128 nM; 5 mM CaCl2; 1:1 fit. The protocol:
Binding characteristics of the Protein S antibodies were also determined. Binding interaction analysis was obtained by Surface Plasmon Resonance in a Biacore X100 instrument. The human anti-IgG (Fc) antibody was immobilized to the carboxymethylated dextran membrane on the sensor chip surface (CM5) via the free amine method for a contact time of 420 seconds. Human anti-IgG antibody at 25 μg/mL in 0.15 M NaCl was immobilized to 9,785 RU in 10 mM sodium acetate pH 5.0.
Dilution and running buffer were as follows: Hbs−EP+5 mM CaCl₂. Regeneration was obtained by 3 M MgCl₂. Binding constants (ka, kd, and KD) were determined using the Biacore X100 evaluation software, assuming a 1:1 interaction of Protein S and the tested monoclonal antibody under investigation.
On the technique in general: Surface plasmon resonance follows binding to a sensor surface in real time, without labels.

Experiment [2] has as its target T2, cynomolgus monkey Protein S (cynomolgus monkey).
T2 construct: also called cyno Protein S
The experiment can be described thus: BLI Octet; antibody on anti-human Fc probe; Protein S 7.81-500 nM; 4 mM CaCl2. The method, then:
(§1) Binding characteristics of the Protein S antibodies were also further characterized using Octet. Using the Octet System (Sartorius), the binding of each antibody to both human and cynomolgus monkey (“cyno” in Table 10) Protein S was determined. The human Fc antibodies were immobilized onto anti-human Fc capture probes by placing the probes into 10 μg/ml antibody solution in 10 mg/ml bovine serum albumin, 20 mM Tris pH 7.0, 150 mM NaCl, and 4 mM calcium chloride. […] Next, the probes were placed into buffer and the dissociation rates were measured.
Background: Biolayer interferometry detects binding as a change in optical thickness at a sensor tip.

Experiment [3] has as its target T1, human Protein S. The experiment is described as above. The protocol:
as §1

A value given as a limit tells only on which side of the number the result lay.

B1: Antibody 1 (antibody, V domains shown)
VH: QVQLVQSGAEVKKPGSSVKVSCKVSGGTFSSYSISWVRQAPGQGLEWMGGIIPIFGTTNYAQKFQGRVTITADESTSTAYMDLSSLKSEDTAMYYCEGGRVGADFDYWGQGTLVTVSS
VL: SSDLTQGPAVSVALGQTVRITCQGDSLRNYYASWYQQKPGQAPVPVIYGKNDRPSGIPDRFSGSISGNTASLTITGAQAEDEAHYYCNSRDSSGNHVVFGGGTKLTVL
notes: Same variable regions as Antibody 13
In the case of B1, in the experiment with human Protein S [1], binding was put at a Kd of 1.33 nM, the koff (usually the first-order rate constant of dissociation) was determined as 0.00039 s⁻¹ and the kon (commonly the rate constant with which the complex forms) was determined as 290000 M⁻¹ s⁻¹. In experiment [2], the dissociation constant (Kd) (in general, the concentration at which binding is half-saturated) is less than 0.001 nM; the off-rate constant (koff) is less than 1e-07 s⁻¹; the on-rate (kon) turned out to be 139000 M⁻¹ s⁻¹. Further, in the experiment with human Protein S [3], the Kd was less than 0.001 nM, the off-rate (koff) was less than 1e-07 s⁻¹ and the association rate constant (kon) worked out at 169000 M⁻¹ s⁻¹.

B2: Antibody 9 (antibody, V domains shown)
VH: QVQLVQSGAEVKKPGSSVKVSCKASGDTFSNHAINWVRQAPGQGLEWMGGYIPIFGTTNSAQKFRGRVTITADKSTNTAYMALSSLRSEDTAVYYCARGGLAGSHYKNYYYDGMDVWGQGTTVTVSS
VL: not shown
notes: Same variable regions as Antibody 21
In the case of B2, in the experiment with human Protein S [1], the Kd came to 15.9 nM, the off-rate constant (koff) stood at 0.00336 s⁻¹ and the kon is 212000 M⁻¹ s⁻¹. For the same molecule, in experiment [2], the affinity, expressed as Kd, was 0.266 nM; the off-rate (koff) was determined as 4.42e-05 s⁻¹; the association rate constant (kon) is 166000 M⁻¹ s⁻¹. In the experiment with human Protein S [3], this molecule had a Kd of 0.533 nM, a koff of 0.000162 s⁻¹ and an association rate constant (kon) of 304000 M⁻¹ s⁻¹.

B3: Antibody 2 (antibody, V domains shown)
VH: QVQLQESGPGLVKPSQTLSLTCTVSGGSITSDGYHWSWIRQYPGKGLDWIGYIYYTGNTYYNPSLKSRVTISVGTSQNQFSLKLISVTAADTAVYYCARRLSTGPYFDYWGQGTLVTVSS
VL: QSALTQPASVSGSPGQSITISCTGTSSDVGGYEFVSWYQHHPGKAPKLMIYDVSSRPSGVSNRFSGSKSGNTASLTISGLQAEDEADYYCSSYTRSSTVVFGGGARLTVL
notes: Same variable regions as Antibody 14
On to B3, for which the equilibrium dissociation constant (Kd) is 1.63 nM with human Protein S [1], less than 0.001 nM in experiment [2] and less than 0.001 nM with human Protein S [3]. For the same molecule, the koff with human Protein S [1] is 0.00056 s⁻¹; in experiment [2], less than 1e-07 s⁻¹; with human Protein S [3], less than 1e-07 s⁻¹. In addition, the kon came to 346000 M⁻¹ s⁻¹ in the experiment with human Protein S [1], 154000 M⁻¹ s⁻¹ in experiment [2] and 207000 M⁻¹ s⁻¹ with human Protein S [3].

B4: Antibody 6 (antibody, V domains shown)
VH: QVQLQESGPGLVKPSETLSLTCTVSGGSISNYYWNWIRQPPGKGLEWIGYIYYIGITDYNPSLKSRVTISVDTSKNQFSLKVTSVTAADTAVYYCAALSGDHAFDIWGQGTLVTVSS
VL: not shown
notes: Same variable regions as Antibody 18
In the experiment with human Protein S [1], B4 showed a Kd of 5.79 nM, a koff of 0.0016 s⁻¹ and a kon of 280000 M⁻¹ s⁻¹. In experiment [2], this molecule returned an equilibrium dissociation constant (Kd) of 2.81 nM, a koff of 0.000394 s⁻¹ and a kon of 140000 M⁻¹ s⁻¹. In the experiment with human Protein S [3], this molecule yielded a dissociation constant Kd of 1.47 nM, a dissociation rate constant (koff) of 0.000332 s⁻¹ and an on-rate (kon) of 226000 M⁻¹ s⁻¹.

B5: Antibody 7 (antibody, V domains shown)
VH: QLQLQESGPGLVKPSETLSLTCTVSGGSISSSSYYWGWIRQPPGKGLEWIGNIYYSGNTYYNPSLKSRVTISVDTSKNQFSLKLSSMTAADTAVYYCARCSGYGYSSGRSYFDYWGQETLVTVSS
VL: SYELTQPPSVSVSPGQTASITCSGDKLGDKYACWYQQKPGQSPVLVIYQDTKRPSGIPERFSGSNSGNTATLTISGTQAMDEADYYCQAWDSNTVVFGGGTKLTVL
notes: Same variable regions as Antibody 19
With B5, the Kd was found to be 20 nM with human Protein S [1], 16.9 nM in experiment [2] and 8.18 nM in the experiment with human Protein S [3]. Moreover, the koff with human Protein S [1] is 0.005 s⁻¹; in experiment [2], 0.00232 s⁻¹; with human Protein S [3], 0.00141 s⁻¹. The values for the kon (in the experiment with human Protein S [1]; in experiment [2]; with human Protein S [3]) were 252000 M⁻¹ s⁻¹, 137000 M⁻¹ s⁻¹ and 172000 M⁻¹ s⁻¹, respectively.

B6: Antibody 28 (antibody, V domains shown)
VH: QVQLQQSGTELVRPGTSVKMSCKAAGYTFTNHWIGWVKQRPGHGLEWIGDIYPGGGYTNYNEKFKGKASLTADTSSTTAYMQLSSLTSEDSAIYYCSRFGDQNWAWFAYWGQGTLVTVSA
VL: DIQMNQSPSSLSASLGDTITITCRASQNIHMWLSWYQQKPGNIPKLLIFKTSNLHTGVPSRFSGSGSGTDFTLTISSLQPEDIATYYCLQGQSYPFTFGGGTKLEIK
In experiment [2], B6 came in with a dissociation constant (Kd) of 9.81 nM, a koff of 0.00106 s⁻¹ and an on-rate (kon) of 109000 M⁻¹ s⁻¹. Moreover, in the experiment with human Protein S [3], the Kd is 6.78 nM, the koff amounted to 0.00106 s⁻¹ and the kon amounted to 156000 M⁻¹ s⁻¹.

B7: Antibody 12 (antibody, V domains shown)
VH: QVQLQESGPGLVKPSETLSLTCGVSGGSISSTNWWSWVRQPPGKGLEWIGEIYQTGSTDYDPSLKSRVTISIDKSKNQFSLKLYSVTAADTAVYYCARRFGELDYWGQGTLVTVSS
VL: EIVMTQSPATLSVSPGERATLSCRASQSVTSNLAWYQQKPGQAPRLLIYDASTRATGIPARFSGSGSGTEFTLTISSLQSEDFAIYYCQQYNNWPTFGQGTRLEIK
notes: Same variable regions as Antibody 24
Regarding B7, in the experiment with human Protein S [1], the dissociation constant (Kd) was 14.4 nM, the koff was determined as 0.00947 s⁻¹ and the kon was 657000 M⁻¹ s⁻¹. In addition, in experiment [2], the dissociation constant Kd was 11.3 nM, the koff came out at 0.00291 s⁻¹ and the kon was found to be 258000 M⁻¹ s⁻¹. In the experiment with human Protein S [3], this molecule showed a dissociation constant (Kd) of 7.49 nM, an off-rate constant (koff) of 0.00232 s⁻¹ and a kon of 309000 M⁻¹ s⁻¹.

B8: Antibody 4 (antibody, V domains shown)
VH: QVQLVESGGGVVQPGRSLRLSCAASGFTFSTYGFHWVRQPPGKGLEWVAVIYYDGINKYYADSVKGRFTISRDNSKNTLFLQMNSLRAEDTAVYYCAESDLDYWGQGTLVTVSS
VL: EIVLTQSPATLSLSPGERATLSCRASQSVSIYLAWYQQKPGQAPRLLIYDASNRATGIPARFSGSGSGTDFTLTISSLEPEDFAVYYCQQRSNWPLTFGPGTKVDIK
notes: Same variable regions as Antibody 16
For B8, the Kd in the experiment with human Protein S [1] worked out at 4.13 nM; in experiment [2], 15.3 nM; in the experiment with human Protein S [3], 2.62 nM. Also, the off-rate (koff) with human Protein S [1] came out at 0.00165 s⁻¹; in experiment [2], 0.00308 s⁻¹; with human Protein S [3] it was 0.000708 s⁻¹. The on-rate (kon) with human Protein S [1] came out at 399000 M⁻¹ s⁻¹; in experiment [2], 201000 M⁻¹ s⁻¹; with human Protein S [3] it was 271000 M⁻¹ s⁻¹.

B9: Antibody 43 (antibody, V domains shown)
VH: QVQLVQSGAEVKKPGASVKVSCKASGYTFTSYYIHWVRQAPGQGLEWMGVTSPSGRSTSFAQKFQGRVTMTRDTSTSAVYMDLDSLRSEDTAVYYCARGGVTIHLERRGYFDYWGQGTLVIVSS
VL: not shown
notes: Same variable regions as Antibody 44
In experiment [2], B9 returned a Kd of 3.88 nM, a koff of 0.00104 s⁻¹ and an association rate constant (kon) of 268000 M⁻¹ s⁻¹. Also, in the experiment with human Protein S [3], the affinity, expressed as Kd, was 1.99 nM; the off-rate constant (koff) worked out at 0.000636 s⁻¹; the kon amounted to 320000 M⁻¹ s⁻¹.

B10: Antibody 27 (antibody, V domains shown)
VH: QVQLQQSGPGLVKPSQTLSLTCAISGDSVSNNNAAWNWIRQSPSRGLEWLGGTYYRSKWYNDYAVSVKSRIIINPVTSKNQFSLQLNSVTPEDTAVYYCARGSSWYRFFDYWGQGTLVTVSS
VL: EIVLTQSPGTLSLSPGERATLSCRASQSVGSSYLAWYQQKPGQAPRLLISGASGRATGIPDRFSGSGSGTDFTLTISRLEPEDFTVYYCQQYGSSPYTFGQGTKLEIK
notes: Same variable regions as Antibody 33
Take B10: in experiment [2], the Kd is 34.3 nM, the koff was found to be 0.00233 s⁻¹ and the kon was 67900 M⁻¹ s⁻¹. For the same molecule, in the experiment with human Protein S [3], the affinity, expressed as Kd, was 0.574 nM; the koff was found to be 0.000159 s⁻¹; the kon is 277000 M⁻¹ s⁻¹.

B11: Antibody 8 (antibody, V domains shown)
VH: QVQLQESGPGLVKPSETLSLTCAVSGYSISSGYYWGWIRQPPGKGLDWIGSIYYSGSTYYNPSLKSRVTISVDTSKNQISLKLSSVTAADTAVYYCATTYSDIVTGYYNDAFDIWGQGTMVTVSS
VL: EIVMTQSPATLSVSPGERATLSCRASQRINSNLAWYQQKPGQAPRLLIYGASTRATGIPARFSGSGSGTEFTLTISSLQSEDFAAYYCQQYDNWPLTFGGGTKVEIK
notes: Same variable regions as Antibody 20
As for B11, the dissociation constant (Kd) in the experiment with human Protein S [1] is 6.25 nM; in experiment [2] it was 1.55 nM; with human Protein S [3], 0.514 nM. In addition, the results for the koff (with human Protein S [1]; in experiment [2]; with human Protein S [3]) were 0.000823 s⁻¹, 0.000133 s⁻¹ and 6.7e-05 s⁻¹, respectively. In addition, the on-rate (kon) was determined as 132000 M⁻¹ s⁻¹ with human Protein S [1], 85800 M⁻¹ s⁻¹ in experiment [2] and 131000 M⁻¹ s⁻¹ with human Protein S [3].

The values above are taken from patent US20230083243A1 (VEGA THERAPEUTICS, published 2023).
